Experimental data as given in the RNAGym collection of RNA variant scans (doi:10.1073/pnas.2313332121).
Variants at the floor of the assay were thinned out.

B1: TPR 5TU (parent)
chain: GGAUCUUCUCGAUCUAACAAAAAAGACAAAUCUGCCACAAAGCUUGAGAGCAUCUUCGGAUGCAGAGGCGGCAGCCUUCGGUGGCGCGAUAGCGCCAACGUUCUCAACUAUGACACGCAAAACGCGUGCUCCGUUGAAUGGAGUUUAUCAUG

Variants of: B1
Experiment: polymerase ribozyme fitness, log enrichment relative to wild type (log ratio); higher = more active; in vitro selection for triplet polymerase activity
How it was run: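 A single round of triplicate in vitro selection, including frozen incubation at −7 °C, was applied to PCR-built, transcribed mutant libraries of each subunit of a heterodimeric triplet polymerase ribozyme. Illumina sequencing of input and output libraries retained genotypes with ≥10 input reads and ≥1 read per output. Fitness is the base-2 logarithm of genotype enrichment divided by wild-type enrichment, from inverse-variance-weighted replicate averages.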

Compared with G46C C114U, A47C A73U C118A is higher in “polymerase ribozyme fitness (log ratio)” value: -3.67 for the first, -3.14 for the second.

G46A C51G U56A G88U G141A and G46A C99U G141A cannot be ordered by “polymerase ribozyme fitness (log ratio)” value: no more than -4.2 for the first, no more than -4.2 for the second.

Going from U45C U56A A91G U111A to A47C U55G, the “polymerase ribozyme fitness (log ratio)” value rises from no more than -4.2 to 0.183.

Compared with A47C G59A G84U G94U G124A, A47C A52G G68C A91C is lower in “polymerase ribozyme fitness (log ratio)” value: -3.56 for the first, no more than -4.2 for the second.

Going from G46A C87U A89C G94A A113C to U45A G92A U127C G128A U130G, the “polymerase ribozyme fitness (log ratio)” value rises from no more than -4.2 to -4.06.

Going from A47C A49G to G46A A49C U101G, the “polymerase ribozyme fitness (log ratio)” value falls from -0.809 to no more than -4.2.

G46U C57G G70C U78G C87U G88U G143A U144A and G46U C103G G124A U151G cannot be ordered by “polymerase ribozyme fitness (log ratio)” value: no more than -4.2 for the first, no more than -4.2 for the second.

Going from A47C A122U to G46A U53A U77A G80A C85A A98U U102C C132G A138G, the “polymerase ribozyme fitness (log ratio)” value falls from -1.45 to no more than -4.2.

Compared with G46A U61G C103A C118G, A47G G84A G128C is higher in “polymerase ribozyme fitness (log ratio)” value: no more than -4.2 for the first, -3.37 for the second.

Compared with U45A U82A A106G A122G U148G, A47C C93U is higher in “polymerase ribozyme fitness (log ratio)” value: no more than -4.2 for the first, -1.69 for the second.

First: G46U U82C C95U
Second: G46A C85A A150C
The “polymerase ribozyme fitness (log ratio)” value of the first is higher: -0.628 for the first, no more than -4.2 for the second.

First: A47G C123G U151C
Second: U45C U77G C79G
The “polymerase ribozyme fitness (log ratio)” value of the first is higher: -4.15 for the first, no more than -4.2 for the second.

Compared with A47C C54U U55A U101C, G46C G58C G83C C125A is lower in “polymerase ribozyme fitness (log ratio)” value: 0.0498 for the first, -4.17 for the second.

Going from G46A A97C C103G C123A G141C A147C C149A to G46U G83U, the “polymerase ribozyme fitness (log ratio)” value rises from no more than -4.2 to -2.29.

Compared with G46A C93U, A47G U56A U90C G92U U139C is lower in “polymerase ribozyme fitness (log ratio)” value: -1.21 for the first, no more than -4.2 for the second.

Compared with U45G G80C A106G A119U A121U G124C G133U, G46C C54U C95U C116U C118G is higher in “polymerase ribozyme fitness (log ratio)” value: no more than -4.2 for the first, -2.25 for the second.

Compared with A47G U55G, A47C C93A A106U U109G is lower in “polymerase ribozyme fitness (log ratio)” value: 0.325 for the first, no more than -4.2 for the second.

Compared with A47C U134G G136A, A47G C99U is higher in “polymerase ribozyme fitness (log ratio)” value: -0.632 for the first, 0.0144 for the second.

Going from A47C C85A C118U to A47G G74A U101G A121C U145C, the “polymerase ribozyme fitness (log ratio)” value falls from -0.946 to no more than -4.2.

First: A47C G50C U53A A89G A106U A120C G136A
Second: U45A G92C U144A
The “polymerase ribozyme fitness (log ratio)” value of the first is lower: no more than -4.2 for the first, -3.41 for the second.

Going from G46C U144C to G46U C51G C54U, the “polymerase ribozyme fitness (log ratio)” value falls from -1.66 to no more than -4.2.

First: U45G G88A
Second: A47G C63G G74C A120G
The “polymerase ribozyme fitness (log ratio)” value of the first is higher: -4.02 for the first, no more than -4.2 for the second.

Compared with U45G A66U U77C A107G G117U, U45A U55A C93U is higher in “polymerase ribozyme fitness (log ratio)” value: no more than -4.2 for the first, -3.88 for the second.

A47G G86U G88C U109G and A47C A60G C93A C95A C96U U139G cannot be ordered by “polymerase ribozyme fitness (log ratio)” value: no more than -4.2 for the first, no more than -4.2 for the second.

Going from A47G G81C G92C C95A A142G to A47G U53A C57A G84U C99U U134G G141C, the “polymerase ribozyme fitness (log ratio)” value falls from -2.95 to no more than -4.2.

Compared with A47C C95U, A47C A60U G80U C93U is lower in “polymerase ribozyme fitness (log ratio)” value: 0.141 for the first, no more than -4.2 for the second.

G46C U61G U78A C93A and G46A C54A C76U G143A cannot be ordered by “polymerase ribozyme fitness (log ratio)” value: no more than -4.2 for the first, no more than -4.2 for the second.

Going from G46A A52G C85A to U45A G84A A115C, the “polymerase ribozyme fitness (log ratio)” value falls from -2.54 to -3.88.

G46C C85U A110U and A47C C85G U134G are within 0.2 log units of each other in “polymerase ribozyme fitness (log ratio)” value: -4.17 for the first, -4.19 for the second.

U45G G70A C87U U144G and G46A G50A C57U A60G G68A G83A G94U G141C cannot be ordered by “polymerase ribozyme fitness (log ratio)” value: no more than -4.2 for the first, no more than -4.2 for the second.

Compared with U45G C57A C93A G124A, A47C C54U G84A U109G is higher in “polymerase ribozyme fitness (log ratio)” value: -3.64 for the first, -1.84 for the second.

A47C C57U G67C C69A A91U C149U and A47G A52C A73G C76G C87G A98G cannot be ordered by “polymerase ribozyme fitness (log ratio)” value: no more than -4.2 for the first, no more than -4.2 for the second.

First: G46U C93U
Second: U45A U148G C149G
The “polymerase ribozyme fitness (log ratio)” value of the first is higher: -0.878 for the first, no more than -4.2 for the second.

Going from U45G U56A C69A C96A C131U G136U to U45G A47G C54U C93G, the “polymerase ribozyme fitness (log ratio)” value falls from -3.1 to no more than -4.2.

First: A47C C57A C93U
Second: A47C U78A C131U U145A
The “polymerase ribozyme fitness (log ratio)” value of the first is higher: -1.3 for the first, no more than -4.2 for the second.

Going from G46C G86A to A47G G92C C114U, the “polymerase ribozyme fitness (log ratio)” value falls from -1.59 to -2.53.

Compared with G46C C99G U101G C105G G124A, U45G C114U is lower in “polymerase ribozyme fitness (log ratio)” value: -2.54 for the first, -2.91 for the second.

A47C A49G G83A G140A and U45A G65C A73G G84A A142G cannot be ordered by “polymerase ribozyme fitness (log ratio)” value: no more than -4.2 for the first, no more than -4.2 for the second.

Going from G46A C76A G86U A121U U144G to U45G C69A, the “polymerase ribozyme fitness (log ratio)” value rises from no more than -4.2 to -1.95.

U45G C87U U139A and A47C G58C A64U U104C A107G cannot be ordered by “polymerase ribozyme fitness (log ratio)” value: no more than -4.2 for the first, no more than -4.2 for the second.

First: G46C U56A G84A G133C
Second: U45A G46C U56A G84U G88U U90G C99A
The “polymerase ribozyme fitness (log ratio)” value of the first is higher: -2.71 for the first, no more than -4.2 for the second.

For G46A C85A, the “polymerase ribozyme fitness (log ratio)” value was -2.16.
